Measured values published in PMC5362085, “Differential effects of DEAE negative mode chromatography and gel-filtration chromatography on the charge status of Helicobacter pylori neutrophil-activating protein” (PLoS ONE, 2017).

Biological target: the molecule itself
Assay: native gel or EMSA; native-PAGE (10% gel) of the load (soluble E. coli lysate), unbound, wash and elution fractions of DEAE Sepharose and DEAE Sephadex batch chromatography, 20 mM Tris-HCl, 50 mM NaCl, pH 7.0 to 9.0 at 25°C; unbound fractions more than 90% pure

B1: Helicobacter pylori neutrophil-activating protein (natural protein)
chain: MKTFEILKHLQADAIVLFMKVHNFHWNVKGTDFFNVHKATEEIYEEFADMFDDLAERIVQLGHHPLVTLSEAIKLTRVKEETKTSFHSKDIFKEILEDYKYLEKEFKELSNTAEKEGDKVTVTYADDQLAKLQKSIWMLQAHLA
notes: HP-NAP, product of the napA gene (HP0243) amplified from genomic DNA of H. pylori strain 26695; subunit of approximately 17 kDa; It states no tag and speaks of recombinant HP-NAP in its native form; its own experiments show only an oligomer; also called HP-NAP; recombinant HP-NAP; source: E. coli BL21(DE3) (pET42a-NAP, IPTG); in soluble lysate and DEAE batch chromatography fractions; copies: 12
binding result: binds
